Source: PMC1277818, “Substrate specificity analysis of protein kinase complex Dbf2-Mob1 by peptide library and proteome array screening” (BMC Biochemistry, 2005)

B1: YLL008W: GST fusion yeast protein on proteome chip (protein, UniProt P32892 1-752, looked up)
ATP-dependent RNA helicase …: MVVGTKKYSNLDFVPTISDSEDDVPILDSSDDEKVEAKKTTKKRKGKNNKKKVSEGDNLDEDVHEDLDAGFKFDLDADDTTSNFQGWNFLAEGESNKDDAEAFVKKDVDLDKIIRRKGGLVKMAHIDSKQEEETEKEKVEKENDSDDEELAMDGFGMGAPMNNGDENQSEEEEEEEEKEEEEEEEEEQEEMTLEKGGKDDEIDEEDDSEEAKADFYAPETEGDEAKKQMYENFNSLSLSRPVLKGLASLGYVKPSPIQSATIPIALLGKDIIAGAVTGSGKTAAFMIPIIERLLYKPAKIASTRVIVLLPTRELAIQVADVGKQIARFVSGITFGLAVGGLNLRQQEQMLKSRPDIVIATPGRFIDHIRNSASFNVDSVEILVMDEADRMLEEGFQDELNEIMGLLPSNRQNLLFSATMNSKIKSLVSLSLKKPVRIMIDPPKKAATKLTQEFVRIRKRDHLKPALLFNLIRKLDPTGQKRIVVFVARKETAHRLRIIMGLLGMSVGELHGSLTQEQRLDSVNKFKNLEVPVLICTDLASRGLDIPKIEVVINYDMPKSYEIYLHRVGRTARAGREGRSVTFVGESSQDRSIVRAAIKSVEENKSLTQGKALGRNVDWVQIEETNKLVESMNDTIEDILVEEKEEKEILRAEMQLRKGENMLKHKKEIQARPRRTWFQSESDKKNSKVLGALSRNKKVTNSKKRKREEAKADGNGARSYRKTKTDRIADQERTFKKQKSTNSNKKKGFKSRR
modifications: GST tag
notes: GST fusion yeast protein on proteome chip
B2: YGR264C: GST fusion yeast protein on proteome chip (protein, UniProt P00958 2-751, looked up)
Methionine--tRNA ligase, …: SFLISFDKSKKHPAHLQLANNLKIALALEYASKNLKPEVDNDNAAMELRNTKEPFLLFDANAILRYVMDDFEGQTSDKYQFALASLQNLLYHKELPQQHVEVLTNKAIENYLVELKEPLTTTDLILFANVYALNSSLVHSKFPELPSKVHNAVALAKKHVPRDSSSFKNIGAVKIQADLTVKPKDSEILPKPNERNILITSALPYVNNVPHLGNIIGSVLSADIFARYCKGRNYNALFICGTDEYGTATETKALEEGVTPRQLCDKYHKIHSDVYKWFQIGFDYFGRTTTDKQTEIAQHIFTKLNSNGYLEEQSMKQLYCPVHNSYLADRYVEGECPKCHYDDARGDQCDKCGALLDPFELINPRCKLDDASPEPKYSDHIFLSLDKLESQISEWVEKASEEGNWSKNSKTITQSWLKDGLKPRCITRDLVWGTPVPLEKYKDKVLYVWFDATIGYVSITSNYTKEWKQWWNNPEHVSLYQFMGKDNVPFHTVVFPGSQLGTEENWTMLHHLNTTEYLQYENGKFSKSRGVGVFGNNAQDSGISPSVWRYYLASVRPESSDSHFSWDDFVARNNSELLANLGNFVNRLIKFVNAKYNGVVPKFDPKKVSNYDGLVKDINEILSNYVKEMELGHERRGLEIAMSLSARGNQFLQENKLDNTLFSQSPEKSDAVVAVGLNIIYAVSSIITPYMPEIGEKINKMLNAPALKIDDRFHLAILEGHNINKAEYLFQRIDEKKIDEWRAKYGGQQV
modifications: GST tag
notes: as for B1
B3: YLR303W: GST fusion yeast protein on proteome chip (protein, UniProt P06106 2-444, looked up)
Homocysteine/cysteine synthase: PSHFDTVQLHAGQENPGDNAHRSRAVPIYATTSYVFENSKHGSQLFGLEVPGYVYSRFQNPTSNVLEERIAALEGGAAALAVSSGQAAQTLAIQGLAHTGDNIVSTSYLYGGTYNQFKISFKRFGIEARFVEGDNPEEFEKVFDERTKAVYLETIGNPKYNVPDFEKIVAIAHKHGIPVVVDNTFGAGGYFCQPIKYGADIVTHSATKWIGGHGTTIGGIIVDSGKFPWKDYPEKFPQFSQPAEGYHGTIYNEAYGNLAYIVHVRTELLRDLGPLMNPFASFLLLQGVETLSLRAERHGENALKLAKWLEQSPYVSWVSYPGLASHSHHENAKKYLSNGFGGVLSFGVKDLPNADKETDPFKLSGAQVVDNLKLASNLANVGDAKTLVIAPYFTTHKQLNDKEKLASGVTKDLIRVSVGIEFIDDIIADFQQSFETVFAGQKP
modifications: GST tag
notes: as for B1
B4: YFR033C: GST fusion yeast protein on proteome chip (protein, UniProt P00127 1-147, looked up)
Cytochrome b-c1 complex …: MGMLELVGEYWEQLKITVVPVVAAAEDDDNEQHEEKAAEGEEKEEENGDEDEDEDEDEDDDDDDDEDEEEEEEVTDQLEDLREHFKNTEEGKALVHHYEECAERVKIQQQQPGYADLEHKEDCVEEFFHLQHYLDTATAPRLFDKLK
modifications: GST fusion
notes: as for B1
B5: YBL024W: GST fusion yeast protein on proteome chip (protein, UniProt P38205 1-684, looked up)
Multisite-specific …: MARRKNFKKGNKKTFGARDDSRAQKNWSELVKENEKWEKYYKTLALFPEDQWEEFKKTCQAPLPLTFRITGSRKHAGEVLNLFKERHLPNLTNVEFEGEKIKAPVELPWYPDHLAWQLDVPKTVIRKNEQFAKTQRFLVVENAVGNISRQEAVSMIPPIVLEVKPHHTVLDMCAAPGSKTAQLIEALHKDTDEPSGFVVANDADARRSHMLVHQLKRLNSANLMVVNHDAQFFPRIRLHGNSNNKNDVLKFDRILCDVPCSGDGTMRKNVNVWKDWNTQAGLGLHAVQLNILNRGLHLLKNNGRLVYSTCSLNPIENEAVVAEALRKWGDKIRLVNCDDKLPGLIRSKGVSKWPVYDRNLTEKTKGDEGTLDSFFSPSEEEASKFNLQNCMRVYPHQQNTGGFFITVFEKVEDSTEAATEKLSSETPALESEGPQTKKIKVEEVQKKERLPRDANEEPFVFVDPQHEALKVCWDFYGIDNIFDRNTCLVRNATGEPTRVVYTVCPALKDVIQANDDRLKIIYSGVKLFVSQRSDIECSWRIQSESLPIMKHHMKSNRIVEANLEMLKHLLIESFPNFDDIRSKNIDNDFVEKMTKLSSGCAFIDVSRNDPAKENLFLPVWKGNKCINLMVCKEDTHELLYRIFGIDANAKATPSAEEKEKEKETTESPAETTTGTSTEAPSAAN
modifications: GST tag
notes: as for B1
B6: YLR007W: GST fusion yeast protein on proteome chip (protein, UniProt Q07913 1-336, looked up)
Non-structural maintenance of …: MEVHEEQVSAPVTGDATAKYLLQYILSARGICHENALILALMRLETDASTLNTEWSIQQWVDKLNDYINAINVKLNLLGYKIIRINHGIGRNAVTLKAKQNFESFEDNTAIRAHNNDYAVLQSIVLPESNRFFVYVNLASTEETKLATRFNQNEIEFMKWAIEQFMISGETIVEGPALETSIIVKEVNRILVAATGDSNLAKWRKFSTFTVGSTNLFQFQELTATDIEDLLLRLCELKWFYRTQEGKFGIDLRCIAELEEYLTSMYNLNTCQNCHKLAIQGVRCGNESCREENEETGENSLSQIWHVDCFKHYITHVSKNCDRCGSSLITEGVYVI
modifications: GST tag
notes: as for B1
B7: YAL051W: GST fusion yeast protein on proteome chip (protein, UniProt P39720 1-1047, looked up)
Oleate-activated …: MVENSTQKAPHAGNDDNSSTKPYSEAFFLGFNNPTPGLEAEHSSTSPAPENSETHNRKRNRILFVCQACRKSKTKCDREKPECGRCVKHGLKCVYDVSKQPAPRIPSKDAIISRLEKDMFYWKDKAMKLLTEREVNESGKRSASPINTNNASGDSPDTKKQHKMEPIYEQSGNGDINNGTRNDIEINLYRSHPTMIMSKVMKREVKPLSENYIIIQDCFLKILVTSVFLDTSKNTMIPALTANANITRAQPSVANNLLKLKEMLIRQCQTEDEKNRVNEFTDRILQNTNSNRNLKIGMLLSMLYNSVGYQYLEDHCPQGGEYSDLLRNLINECEAILPSYEIIERYKNHFYEYVYPSLPFIELEIFEESLSQTIFPDPNNPSKVQIRMGSTHLRAKVENLSLLLVILKLSYMSIRFLDHSTADSSFYLSKEIIDKYPIPNDFILLSQRCLASENWCACANENIISCLLYIWSFFAFSPEEGDFFLEHPTDVISSLIMMLSTSIGLHRDPSDFPQLISPSTSDKRTLNHRRILWLSIVTVCSFEASLKGRHSVSPISLMALFLNIKDPDSLTVYMNRVRGDLSDINNHKLLRIHKFTFKRAQLALLLSDLDNLTMTYYGSFHLHSIEFIREKIEIFVEENFPIVPLKSVAQDKSDLDDMNVISEMNILSSENSSSFHNRIMNKLLMLRTSMAVFLHFETLITKDKSIFPFYKKYFMVSCMDALSLINYFNKFFNGEYRHAISSLTSFNVTKFIQLALSSTIFSLLGIILRIGLAIHMLSSEVQKLSGTTDPRIKELNTKVEKFSTLQRDLESALEGIYCSASEHLRFTYFPVFKMLALFDVIVQRMRKGELWHGIFTMIQMEQMHSRIIKTLSITLGVKLDKKDRLLEELMACNHVANFSVEDIDELNRNIKKEIQISSGLKPPVNTIDLTNGEPFGNAVPTFTKTWSSSLDNLEKLSSAAAVGQSLDYNSGLRQGPLAGGGSKEQTPIAGMNNLNNSINATPIVDNSSGSQLPNGFDRGQANNTPFPGYFGGLDLFDYDFLFGNDFA
modifications: GST tag
notes: as for B1

molecular target: T1, FHHDbf2-H6Mob1TM9 (Saccharomyces cerevisiae, UniProt P22204+P40484); test: Yeast proteome chip assay; type: biochemical; settings: Table 3; GST fusion proteins on proteome chip, [γ-33P]ATP, chips in duplicate, computer analysis
T1 construct: made in house; host or cells: Hi5 insect cells (baculovirus)
T1 sequence (P22204 1-572): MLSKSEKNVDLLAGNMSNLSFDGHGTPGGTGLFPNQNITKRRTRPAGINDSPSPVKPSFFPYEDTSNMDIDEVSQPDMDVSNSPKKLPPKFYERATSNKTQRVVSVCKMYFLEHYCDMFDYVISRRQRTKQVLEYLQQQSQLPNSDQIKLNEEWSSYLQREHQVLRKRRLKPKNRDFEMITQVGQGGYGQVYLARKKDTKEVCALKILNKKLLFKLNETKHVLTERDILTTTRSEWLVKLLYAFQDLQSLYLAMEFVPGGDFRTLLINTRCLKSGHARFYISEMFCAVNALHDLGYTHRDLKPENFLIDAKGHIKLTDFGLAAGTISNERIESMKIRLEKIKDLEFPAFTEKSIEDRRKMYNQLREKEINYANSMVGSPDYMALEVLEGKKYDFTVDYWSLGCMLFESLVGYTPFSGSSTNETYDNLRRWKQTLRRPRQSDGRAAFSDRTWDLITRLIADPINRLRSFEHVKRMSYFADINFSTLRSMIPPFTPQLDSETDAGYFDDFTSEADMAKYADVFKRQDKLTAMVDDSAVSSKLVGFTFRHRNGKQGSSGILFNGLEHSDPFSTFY
T1 sequence (P40484 1-314 partner): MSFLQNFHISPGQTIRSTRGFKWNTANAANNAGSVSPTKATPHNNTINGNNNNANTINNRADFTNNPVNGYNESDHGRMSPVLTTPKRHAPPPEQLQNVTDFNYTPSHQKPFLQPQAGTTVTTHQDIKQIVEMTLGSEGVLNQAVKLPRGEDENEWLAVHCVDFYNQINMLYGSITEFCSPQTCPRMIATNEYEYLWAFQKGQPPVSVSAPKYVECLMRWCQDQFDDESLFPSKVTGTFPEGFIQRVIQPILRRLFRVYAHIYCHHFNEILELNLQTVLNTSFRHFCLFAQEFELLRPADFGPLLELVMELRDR
How it was run: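 GST-tagged yeast proteins (~4,400 strains) spotted on proteome microarrays, probed in duplicate with FHHDbf2-H6Mob1TM9 in DKB plus [γ-33P]ATP; kinase-dead Dbf2(N305A) and kinase-free buffer served as controls. Positives: 3 of 4 spots ≥2 SD above background, fourth ≥1.5 SD.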

| Molecule | Slide Signal (after normalization) |
| --- | --- |
| B1 | 0.0702 |
| B2 | 0.1328 |
| B3 | 0.0985 |
| B4 | 0.042 |
| B5 | 0.1294 |
| B6 | 0.0988 |

same assay, conditions: Table 4, the 25 proteins with highest signal relative to protein amount; [γ-33P]ATP, chips in duplicate

| Molecule | Slide Signal (after normalization) |
| --- | --- |
| B7 | 81.8589 |
